Results taken from US20260234241A1 (SHANGHAI QILU PHARMACEUTICAL RESEARCH AND DEVELOPMENT CENTRE, published 2026).
Read-outs that look alike come from different tables or passages of the source.

Key:
[1] = target: T1, human BCMA (on cells) (human, UniProt Q02223 1-184); test: FACS, human BCMA-CHOK1 cells, anti-human IgG Fc PE secondary, MFI
T1 construct: Full length, on transfected CHOK1 cells; also used as the target of the BCMA/CD3 bispecific Teclistamab on NCI-H929 and RPMI8226 cells; also called Human BCMA CHOK1
T1 sequence: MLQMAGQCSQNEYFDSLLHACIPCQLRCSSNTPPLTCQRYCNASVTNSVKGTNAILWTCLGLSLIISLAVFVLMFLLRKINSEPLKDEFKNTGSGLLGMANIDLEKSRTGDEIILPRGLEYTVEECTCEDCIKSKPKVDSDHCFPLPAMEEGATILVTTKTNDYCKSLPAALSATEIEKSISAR

[2] = target: T1, human BCMA (on cells); test: as above; remark: listed apart in the source
[3] = target: T2, cynomolgus monkey BCMA (on cells) (cynomolgus monkey, UniProt Q02223 1-184 (human entry)); test: FACS, cynomolgus monkey BCMA-CHOK1 cells, anti-human IgG Fc PE secondary, MFI
T2 construct: also called cyno-BCMA; cyno BCMA CHOK1
T2 sequence (Q02223 other isoform, or with tags, fused parts or gaps): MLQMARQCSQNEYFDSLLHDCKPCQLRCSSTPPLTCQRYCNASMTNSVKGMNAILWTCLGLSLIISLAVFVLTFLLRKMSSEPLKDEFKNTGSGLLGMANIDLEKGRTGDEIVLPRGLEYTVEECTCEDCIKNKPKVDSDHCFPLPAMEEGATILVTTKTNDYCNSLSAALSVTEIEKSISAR

[4] = target: T1, human BCMA (on cells); test: FACS on human BCMA-CHOK1 cells
[5] = target: T2, cynomolgus monkey BCMA (on cells); test: FACS on cynomolgus BCMA-CHOK1 cells

B1: 19CH-16 (antibody, IgG1, V domains shown)
VH: QGQMQQSGAELVKPGTSVKLSCKTSGFTFRSSYISWLQQKPGQSLEWIAWIYAGSGNTDYNQKFTGKAQLTVDTSSSTAYMQFSSLTTEDSAIYYCARHYDPPHYFDYWGQGTTLTVSS
VL: QIVLTQSPAIMSASPGEKVTMTCSASSGVSHMHWYQQKSGTSPKRWIYDTSKLTSGVPTRFSGTGSGTSYSLSISSMEAEDAATYYCQQWSRNPWTFGGGTKLEIK
notes: also called anti-BCMA chimeric antibody (19CH-16) derived from mouse hybridoma
In the case of B1, the “EC50 (read off the curve)” value [1] is reported as ~2 nM.

B2: 19CH-16H2L2 (antibody, IgG1, V domains shown)
VH: QVQLVQSGAEVKKPGASVKVSCKASGFTFRSSYISWVRQAPGQGLEWIAWIYAGSGNTDYNQKFTGRVTMTVDTSTSTVYMELSSLRSEDTAVYYCARHYDPPHYFDYWGQGTLVTVSS
VL: DIQLTQSPSSLSASVGDRVTITCSASSGVSHMHWYQQKPGKAPKRWIYDTSKLTSGVPSRFSGSGSGTDFTLTISSLQPEDFATYYCQQWSRNPWTFGQGTKVEIK
notes: also called humanized anti-BCMA antibody (19CH-16H2L2)
B2 was tested, and the “EC50 (read off the curve)” value [2] was ~1 nM and the “EC50 (read off the curve)” value [3] was ~3 nM.

B3: 19CH-16H2L2-QT (antibody, V domains shown)
VH: QVQLVQSGAEVKKPGASVKVSCKASGFTFRSSYISWVRQAPGQGLEWIAWIYAGSGQTDYNQKFTGRVTMTVDTSTSTVYMELSSLRSEDTAVYYCARHYDPPHYFDYWGQGTLVTVSS
VL: DIQLTQSPSSLSASVGDRVTITCSASSGVSHMHWYQQKPGKAPKRWIYDTSKLTSGVPSRFSGSGSGTDFTLTISSLQPEDFATYYCQQWSRNPWTFGQGTKVEIK
B3 showed an EC50 [4] of 7.76 nM and an EC50 [5] of 9.05 nM.
